# Biological target: A/WSN/1933 (H1N1) hemagglutinin (Influenza A virus A/WSN/1933 (H1N1))
# Test: gel filtration
binder,measurement,value
"HB36.3 (Asp47Ser, Ala60Val) (designed binder) MSNAMDGQQLNRLLLEWIGAWDPFGLGKDAYDVEAEAVLQAVYETESAFDLAMRIMWIYVFAFNRPIPFPHAQKLARRLLELKQAASSPLPLE",binding result,binds

# — patent US20140206628A1 (University of Washington, published 2014)
